Source: paper PMC5986765 (Cell Discovery, 2018)
Bridge positions count the residues as written; N and C are the ends. Ends that are not written are not given here.

T1: chicken ASIC1a (cASIC1a) (Gallus gallus, UniProt Q1XA76)
T1 construct: expressed in transfected cells; host or cells: CHO cells, transient transfection, pcDNA3.1/Zeo(+)
T1 sequence (Q1XA76 1-527): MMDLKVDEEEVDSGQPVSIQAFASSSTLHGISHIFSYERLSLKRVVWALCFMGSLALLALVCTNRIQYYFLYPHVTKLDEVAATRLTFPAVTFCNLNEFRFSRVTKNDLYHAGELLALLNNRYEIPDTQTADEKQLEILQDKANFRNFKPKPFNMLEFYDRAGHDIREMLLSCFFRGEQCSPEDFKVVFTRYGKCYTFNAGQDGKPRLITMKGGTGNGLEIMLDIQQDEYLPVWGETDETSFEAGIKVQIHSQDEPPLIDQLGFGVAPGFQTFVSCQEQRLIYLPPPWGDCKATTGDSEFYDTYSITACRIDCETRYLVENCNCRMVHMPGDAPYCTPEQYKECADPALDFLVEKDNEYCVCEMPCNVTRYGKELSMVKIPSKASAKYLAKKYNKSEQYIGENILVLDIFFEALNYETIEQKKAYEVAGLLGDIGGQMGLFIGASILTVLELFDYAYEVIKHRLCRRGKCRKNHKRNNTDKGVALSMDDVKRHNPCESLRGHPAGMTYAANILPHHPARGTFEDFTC

T2: human ASIC1a (hASIC1a) (Homo sapiens, UniProt P78348)
T2 construct: expressed in transfected cells; host or cells: CHO cells
T2 sequence (P78348 1-528): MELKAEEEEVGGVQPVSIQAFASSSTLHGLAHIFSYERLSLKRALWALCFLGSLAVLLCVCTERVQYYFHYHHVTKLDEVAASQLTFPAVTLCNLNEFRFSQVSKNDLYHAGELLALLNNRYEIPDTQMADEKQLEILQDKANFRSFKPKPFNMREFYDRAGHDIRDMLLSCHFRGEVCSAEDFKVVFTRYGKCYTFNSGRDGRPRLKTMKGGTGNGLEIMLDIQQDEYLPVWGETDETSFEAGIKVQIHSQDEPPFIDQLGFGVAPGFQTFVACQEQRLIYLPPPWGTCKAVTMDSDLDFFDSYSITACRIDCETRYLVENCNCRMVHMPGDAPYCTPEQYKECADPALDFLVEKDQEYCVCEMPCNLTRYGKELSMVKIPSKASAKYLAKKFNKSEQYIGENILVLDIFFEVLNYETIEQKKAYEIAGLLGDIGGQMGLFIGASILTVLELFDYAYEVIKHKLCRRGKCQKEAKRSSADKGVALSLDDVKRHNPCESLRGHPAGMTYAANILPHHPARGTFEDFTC

B1: mambalgin-1 (peptide)
chain: LKCYQHGKVVTCHRDMKFCYHNTGMPFRNLKLILQGCSSSCSETENNKCCSTDRCNK
notes: also called synthetic mambalgin-1; wild-type mambalgin-1
B2: truncated chicken ASIC1a (residues 14-463), cASIC1a^ΔNC (domain or fragment)
chain: GQPVSIQAFASSSTLHGISHIFSYERLSLKRVVWALCFMGSLALLALVCTNRIQYYFLYPHVTKLDEVAATRLTFPAVTFCNLNEFRFSRVTKNDLYHAGELLALLNNRYEIPDTQTADEKQLEILQDKANFRNFKPKPFNMLEFYDRAGHDIREMLLSCFFRGEQCSPEDFKVVFTRYGKCYTFNAGQDGKPRLITMKGGTGNGLEIMLDIQQDEYLPVWGETDETSFEAGIKVQIHSQDEPPLIDQLGFGVAPGFQTFVSCQEQRLIYLPPPWGDCKATTGDSEFYDTYSITACRIDCETRYLVENCNCRMVHMPGDAPYCTPEQYKECADPALDFLVEKDNEYCVCEMPCNVTRYGKELSMVKIPSKASAKYLAKKYNKSEQYIGENILVLDIFFEALNYETIEQKKAYEVAGLLGDIGGQMGLFIGASILTVLELFDYAYEVIKHR
notes: not shown: His8, N-terminal, cleaved; EGFP, N-terminal, cleaved

Columns and labels:
[1] = molecular target: T1, chicken ASIC1a (cASIC1a); assay: whole-cell patch clamp in CHO cells, inhibition of chicken ASIC1a; assay type: cell-based; settings: for effect of mambalgin-1 point mutants on wild-type cASIC1a: 500 nM, means ± S.E., t-test versus WT, n = 4–13, bar graph Fig. 3e, values not given
Description: (§1) Fig. 1 Chemical synthesis and bioactivity analysis of mambalgin-1. a Synthetic route of mambalgin-1 and its mutants. b Synthetic mambalgin-1 inhibits recombinant human and chicken ASIC1a (hASIC1a and cASIC1a) channels in CHO cells. After two stable records of acid currents that were elicited by a pH drop from 7.4 to 6.0 for 4 s, synthetic mambalgin-1 was applied at pH 7.4 for 30 s followed by another application during a 4spH drop to 6.0. c Concentration–response curve showing the inhibition of hASIC1a and cASIC1a channels expressed in CHO cells (n = 3–14) by synthetic wild-type mambalgin-1
The coding sequence for wild-type cASIC1a was sub-cloned into the pcDNA3.1/Zeo( + ) vector. All site-directed mutations were generated with overlap PCR and inserted into pcDNA3.1/Zeo(+). The mutants were sequenced to verify that no unwanted mutations had been introduced. Chinese hamster ovary (CHO) cells were cultured in DMEM/F12 medium (Gibco) supplemented with 10% fetal bovine serum (FBS), 100 U/mL penicillin, and 100 U/mL streptomycin at 37 °C in a 5% CO2 incubator. The CHO cells were transferred to 24-well plates for transfection. When the CHO cells reached 90% confluence, they were transfected with 0.6 μg of plasmid encoding EGFP and 0.8 μg of plasmid encoding wild-type or mutant cASIC1a using Lipofectamine 2000 (Invitrogen, USA). After incubation for 5 h, the cells were transferred to poly-L-lysine (Sigma)-coated slides for culture for another 24–48 h in fresh medium. They were then used for the electrophysiological analysis.
For the whole-cell recordings, the bath solution contained 150 mM NaCl, 4 mM KCl, 2 mM CaCl2, 1 mM MgCl2, and 10 mM HEPES (pH 7.4, ~308 mOsm). For acidic solution below pH 6.0, HEPES was replaced by 10 mM MES to buffer solutions. The electrodes were pulled from thick-walled borosilicate glass capillaries with filaments (1.5 mm diameter; Sutter Instruments) on a four-stage puller (P-1000; Sutter, USA) and had resistances of 2–5 MΩ when filled with intracellular solution containing 140 mM KCl, 10 mM NaCl, 5 mM EGTA, 10 mM HEPES, (pH 7.4, ~297 mOsm). All chemicals were obtained from Sigma. The experiments were performed at room temperature with an EPC-10 amplifier (HEKA Electronic) with the data acquisition software PatchMaster. Membrane potential was held at −70 mV in all experiments. Acid-induced currents were recorded by rapidly exchanging local solution from pH 7.4 to acidic pH through a Y-tube perfusion system. Toxins were applied 30 s before the pH decreased and persisted during low pH application. Channels were activated by acid perfusion at least every 2 min to allow for a complete recovery of the channels from desensitization. Recordings in which access resistance or capacitance changed by 10% during the experiment were excluded from data analysis. Mambalgin-1 was added when the currents were stable.
(§2) The data were analyzed with Clampfit and SigmaPlot. The dose–response curves used to determine the IC50 values were fitted using the Hill equation: y = 1 + (Imax−1)/(1 + (IC50/x)^h), where y represents the normalized current, Imax represents the control current of ASIC1 detected in each set of experiments; x is the toxin concentration, h is the Hill coefficient, and IC50 is the half-maximal concentration. The results are presented as the means ± standard errors (SE), and n is the number of experiments.

[2] = molecular target: T2, human ASIC1a (hASIC1a); assay: whole-cell patch clamp in CHO cells, inhibition of human ASIC1a; assay type: cell-based; settings: synthetic mambalgin-1, whole-cell recording at −70 mV, pH drop from 7.4 to 6.0 for 4 s, toxin applied 30 s before at pH 7.4 and during acid, room temperature, Hill fit, mean ± SE, n = 3–14
Description: as §1
The coding sequence for wild-type cASIC1a was sub-cloned into the pcDNA3.1/Zeo( + ) vector. […]
For the whole-cell recordings, the bath solution contained 150 mM NaCl, 4 mM KCl, 2 mM CaCl2, 1 mM MgCl2, and 10 mM HEPES (pH 7.4, ~308 mOsm). […] Acid-induced currents were recorded by rapidly exchanging local solution from pH 7.4 to acidic pH through a Y-tube perfusion system. […]
as §2, with “The results are presented as the means ± standard errors (SE), and n is the number of experiments.” left out

[3] = test system: mice; settings: cited from earlier work
Description: Mambalgin-1, a toxin isolated from black mamba venom, is a disulfide-rich polypeptide consisting of 57 amino acids and belongs to the family of three-finger toxins[31],[38].

[4] = test system: ASIC1a; settings: cited from earlier work
Description: Mambalgin-1 can bind to and stabilize ASICs in a physiologically relevant closed-channel conformation, but the underlying binding and inhibition mechanism remains elusive. […] Previously, a docked structure of the cASIC1a–mambalgin-1 complex was reported[23],[24], following the crystal structure of the cASIC1a–PcTx1 complex. Mambalgin-1 was predicted to insert into the acidic pocket (also known as the acid-sensing pocket) inside t ...

[5] = molecular target: B2; assay: cryo-EM structure; settings: both partners purified
[6] = molecular target: the molecule itself; assay: cryo-EM structure; […] 5.7 Å overall map, 5.4 Å map of the extracellular part; poly-alanine model by rigid-body fitting of crystal structures

**Q.** Which “effect of mambalgin-1 point mutants on wild-type cASIC1a” value (from here on “effect of mambalgin-1 point mutants”) [1] does the source give for “F27A: mutation of mambalgin-1 in the Finger II region (LKCYQHGKVVTCHRDMKFCYHNTGMPARNLKLILQGCSSSCSETENNKCCSTDRCNK; disulfide (positions not given here); ends not checked; UniProt P0DKR6 22-78, looked up, variant F27A)” here?
**A.** The value was “perturbed the inhibitory effects of the cASIC1a channel”.

**Q.** For “H6A: mutation of mambalgin-1 in the Finger I region (LKCYQAGKVVTCHRDMKFCYHNTGMPFRNLKLILQGCSSSCSETENNKCCSTDRCNK; disulfide (positions not given here); ends not checked; UniProt P0DKR6 22-78, looked up, variant H6A)”, which “effect of mambalgin-1 point mutants” value [1] is on record?
**A.** Its value is “perturbed the inhibitory effects of the cASIC1a channel”.

**Q.** Which “effect of mambalgin-1 point mutants” value [1] does the source give for “K8A: mutation of mambalgin-1 in the Finger I region (LKCYQHGAVVTCHRDMKFCYHNTGMPFRNLKLILQGCSSSCSETENNKCCSTDRCNK; disulfide (positions not given here); ends not checked; UniProt P0DKR6 22-78, looked up, variant K8A)” here?
**A.** The value was “perturbed the inhibitory effects of the cASIC1a channel”.

**Q.** With “LKCYQHGKVVTCHRDMKFCYHNTGMPFRNLKLILQGCSSSCSETENNKCCSTDRCNK-NH2 (disulfide 3-19, 12-37, 41-49, 50-55) [mambalgin-1]” as the molecule, how does the IC50 [2] read?
**A.** The IC50 was 197 ± 18.7 nM.

**Q.** What about the “adverse side effects relative to traditional opioid drugs” value [3] of the same molecule?
**A.** The value was “fewer adverse side effects than traditional opioid drugs”.

**Q.** And the IC50 ([1]; synthetic mambalgin-1, whole-cell recording at −70 mV, pH drop from 7.4 to 6.0 for 4 s, toxin applied 30 s before at pH 7.4 and during acid, room temperature, Hill fit, mean ± SE, n = 3–14)?
**A.** Its IC50 is 124 ± 20.3 nM.

**Q.** With “PcTx1 (EDCIPKWKGCVNRHGDCCEGLECWKRRRSFEVCVPKTPKT; ends and bridges not checked; cysteine pairing not given here; UniProt P60514 1-40, looked up)” as the molecule, how does the “channel states bound, PcTx1” value [4] read?
**A.** The value was “binds tightly to the open and desensitized states of ASIC1a”.

**Q.** Which “effect of mambalgin-1 point mutants” value [1] does the source give for “Q5A: mutation of mambalgin-1 in the Finger I region (LKCYAHGKVVTCHRDMKFCYHNTGMPFRNLKLILQGCSSSCSETENNKCCSTDRCNK; disulfide (positions not given here); ends not checked; UniProt P0DKR6 22-78, looked up, variant Q5A)” here?
**A.** The value was “perturbed the inhibitory effects of the cASIC1a channel”.

**Q.** With “R28A: mutation of mambalgin-1 in the Finger II region (LKCYQHGKVVTCHRDMKFCYHNTGMPFANLKLILQGCSSSCSETENNKCCSTDRCNK; disulfide (positions not given here); ends not checked; UniProt P0DKR6 22-78, looked up, variant R28A)” as the molecule, how does the “effect of mambalgin-1 point mutants” value [1] read?
**A.** The value was “perturbed the inhibitory effects of the cASIC1a channel”.

**Q.** With B1 as the molecule, how does the “stoichiometry N” value [5] read?
**A.** Its value is 3 mambalgin-1 per cASIC1a trimer.

**Q.** Which “stoichiometry N” value [6] does the source give for B2 here?
**A.** The value was 3.
